One experiment has as its target BARTL1 (CCDC104/CFAP36) (Homo sapiens, UniProt Q96G28). The experiment is described as follows: fluorescence polarization. A general note: In fluorescence polarisation assays a small probe gives low polarisation when free and higher when bound to something large.
In experiment [1] the target is BARTL1 (CCDC104/CFAP36) 1-133 (Homo sapiens, UniProt Q96G28). The experiment is described as follows: fluorescence polarization.
Chain of BARTL1 (CCDC104/CFAP36) 1-133 (Q96G28 1-133): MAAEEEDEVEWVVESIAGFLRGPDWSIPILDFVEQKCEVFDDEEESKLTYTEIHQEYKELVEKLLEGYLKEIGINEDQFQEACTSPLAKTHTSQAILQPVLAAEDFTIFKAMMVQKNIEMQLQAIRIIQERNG

Chain of BARTL1 (CCDC104/CFAP36) (Q96G28 whole entry): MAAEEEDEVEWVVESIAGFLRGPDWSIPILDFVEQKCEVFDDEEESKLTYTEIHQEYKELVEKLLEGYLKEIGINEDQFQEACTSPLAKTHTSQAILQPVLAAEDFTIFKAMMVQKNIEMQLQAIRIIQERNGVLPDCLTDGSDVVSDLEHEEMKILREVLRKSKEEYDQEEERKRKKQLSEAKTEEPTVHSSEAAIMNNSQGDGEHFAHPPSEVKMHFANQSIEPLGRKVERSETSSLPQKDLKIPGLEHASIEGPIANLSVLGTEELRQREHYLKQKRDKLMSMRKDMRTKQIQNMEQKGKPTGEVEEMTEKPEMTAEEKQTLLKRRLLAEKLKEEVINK

B1: Arl2 (protein)
chain: GLLTILKKMKQKERELRLLMLGLDNAGKTTILKKFNGEDVDTISPTLGFNIKTLEHRGFKLNIWDVGGQKSLRSYWRNYFESTDGLIWVVDSADRQRMQDCQRELQSLLVEERLAGATLLIFANKQDLPGALSCNAIQEALELDSIRSHHWRIQGCSAVTGEDLLPGIDWLLDDISSRVFTAD
modifications: mant-GppNHp-bound Arl2
The Kd is a measure of binding affinity in units of concentration. A high value points to lower affinity. With B1, the results for the equilibrium dissociation constant (Kd) (with BARTL1 (CCDC104/CFAP36); in experiment [1]) were around 10 µM and around 4.3 µM, respectively.

The record behind these values is PMC4635315 (2015).
